Consider 2 molecules from patent publication US7033593.

Assay [1] concerns the target T1, CD4-gp140 complex (HIV 89.6 gp140 bound to sCD4) (HIV 89.6 (Clade B) primary isolate), Q73372. The experiment in a line: SPR, peptide over gp140 captured on immobilised CD4. (SPR reads the build-up and loss of mass on a sensor chip optically.)
Assay [2] concerns the target soluble HIV 89.6 gp140 envelope protein (cleaved gp140 preparation) (HIV 89.6 (Clade B) primary isolate), Q73372. The experiment in a line: SPR, peptide over directly immobilised 89.6 gp140, no CD4.
The target of assay [3] is T1, CD4-gp140 complex (HIV 89.6 gp140 bound …). As to the kind of experiment: SPR (FIG. 10D); the legend of the same figure prints 280 nM.
Assay [4] addresses CD4-gp120 complex (HIV 89.6 gp120 bound to sCD4) (HIV 89.6 (Clade B) primary isolate), Q73372. The experiment in a line: SPR, row CD4-gp120.
Assay [5] concerns the target T1, CD4-gp140 complex (HIV 89.6 gp140 bound …). As to the kind of experiment: SPR, row CD4-gp140.
For assay [6] the target is unchanged. As to the kind of experiment: SPR, row CD4+gp140 (89.6 gp140).
Assay [7] addresses T2, CD4-gp140-D1 complex (HIV 89.6 gp140 bound to sCD4 and the CCR5-D1 peptide) (HIV 89.6 (Clade B) primary isolate; human), Q73372. The experiment in a line: SPR, row CD4+gp140+R5-D1 (89.6 gp140).
The target of assay [8] is T1, CD4-gp140 complex (HIV 89.6 gp140 bound …). The experiment in a line: SPR, row CD4+gp140 (89.6 gp140); column headed Ka.
Assay [9] shares this target. As to the kind of experiment: SPR, row CD4+gp140 (89.6 gp140); column headed Kd s-1.
In assay [10] the target is T2, CD4-gp140-D1 complex (HIV 89.6 gp140 …). As to the kind of experiment: SPR, row CD4+gp140+R5-D1 (89.6 gp140); column headed Ka.
In assay [11] the target is T1, CD4-gp140 complex (HIV 89.6 gp140 bound …). As to the kind of experiment: SPR, RU bound at steady state, row CD4+gp140 (89.6 gp140).
In assay [12] the target is T2, CD4-gp140-D1 complex (HIV 89.6 gp140 …). The experiment in a line: SPR, row CD4+gp140+R5-D1 (89.6 gp140); column headed Kd s-1.
For assay [13] the target is unchanged. The experiment in a line: SPR, RU bound at steady state, row CD4+gp140+R5-D1 (89.6 gp140).

For orientation: Kd means a measure of binding affinity in units of concentration. Read a high Kd as weaker binding. As usually defined, the koff is the rate constant with which the complex falls apart. A higher koff goes with fast dissociation. In general, kon refers to the second-order rate constant of association. Read a low kon as slow association. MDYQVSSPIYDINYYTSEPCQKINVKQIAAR (modifications not checked) [CCR5-D1 peptide]: in [1], the Kd was determined as 280 nM, the koff amounted to 0.00256 s⁻¹ and the association rate constant (kon) was found to be 9000 M⁻¹ s⁻¹. In assay [2], this molecule showed an equilibrium dissociation constant (Kd) of 1000 nM and an off-rate constant (koff) of 0.01 s⁻¹. This molecule gave a dissociation constant Kd in [3] of 280 nM.
For the molecule WMEWDREINNYTSLIHSLIEESQNQLEKNEQELLEL (modifications not checked) [HR-2 peptide T649Q26L], the dissociation constant Kd came out at 2540 nM in [4], 1200 nM in assay [5], 2400 nM in assay [6] and 1000 nM in assay [7]. For the same molecule, the koff in assay [4] came out at 0.0032 s⁻¹; in assay [5] it was 0.0011 s⁻¹; in [9], 0.0146 s⁻¹; in assay [12] it was 0.0053 s⁻¹. Moreover, the association rate constant (kon) worked out at 1260 M⁻¹ s⁻¹ in [4], 880 M⁻¹ s⁻¹ in [5], 6200 M⁻¹ s⁻¹ in assay [8] and 5100 M⁻¹ s⁻¹ in assay [10]. In addition, the t1/2 in assay [4] was determined as 3.62 min; in assay [5], 10.5 min; in assay [6], 0.8 min; in assay [7], 2.18 min. The Rm in assay [11] is 53 RU; in assay [13], 64 RU.
